Experimental data reported in patent US20130183378A1 (CEDARS SINAI MEDICAL CENTER, published 2013).

B1: mouse counterpart of SEQ ID NO:1, MLLQVSHYL (SEQ ID NO:11) (peptide)
peptide: MLLQVSHYL
notes: Free peptide added to T2 cells at 0, 10 or 100 µM; also called mouse peptide
B2: CD133-804 (peptide)
peptide: FLLPALIFAV
notes: Free peptide added to T2 cells; also called peptide 804
B3: CD133-117 (peptide)
peptide: LLFIILMPLV
notes: Free peptide added to T2 cells; also called peptide 117
B4: CD133-708 (peptide)
peptide: GLLERVTRI
notes: Free peptide added to T2 cells; also called peptide 708
B5: CD133-301 (peptide)
peptide: SLNDPLCLV
notes: Free peptide added to T2 cells; also called peptide 301

The binders below were run against T1, HLA-A*0201 on T2 cells (human) (assay: T2 cells incubated overnight with 0, 10 or 100 µM peptide, Brefeldin A, BB7.2 mAb staining, flow cytometry; fluorescence increased in a dose-dependent manner).
T1 construct: the class I molecule on T2 cells that the added peptide stabilises; also called HLA-A2; HLA-A2 molecules
Method: T2 cells were incubated overnight with 0 μM, 10 μM, or 100 μM of SEQ ID NO:11. The cells were then incubated with Brefeldin A (Sigma, St. Louis, Mo.) at 10 μg/ml for 1 hour, washed, incubated at 37° C. in the presence of Brefeldin A (0.5 μg/ml), and then stained with BB7.2 mAb. Fluorescence intensity was measured by flow cytometry.

B1: binds.

The binders below were run against T1, HLA-A*0201 on T2 cells (assay: T2 cell HLA-A*0201 stabilisation; 100 µM peptide overnight, Brefeldin A, BB7.2 mAb staining, flow cytometry; MFI minus no-peptide control).
Method: The cells were then incubated with Brefeldin A (Sigma, St. Louis, Mo.) at 10 μg/ml for 1 hour, washed, incubated at 37° C. for 0, 3, or 6 hours in the presence of Brefeldin A (0.5 μg/ml), and then stained with BB7.2 mAb.

Compared with B2, ILSAFSVYV (Free peptide added to T2 cells) [CD133-405] is lower in “MFI (0 hour)” value: 89 MFI for the first, 79.7 MFI for the second.

First: B3
Second: B4
The “MFI (0 hour)” value of the first is lower: 5.5 MFI for the first, 13.1 MFI for the second.

With B5 the “MFI (0 hour)” value was 10.7 MFI.

First: B2
Second: ILSAFSVYV (Free peptide added to T2 cells) [CD133-405]
The “MFI (3 hour)” value of the first is lower: 67.6 MFI for the first, 69.3 MFI for the second.

Compared with B3, B4 is higher in “MFI (3 hour)” value: 7.5 MFI for the first, 14.8 MFI for the second.

With B5 the “MFI (3 hour)” value was 14.3 MFI.

Going from B2 to ILSAFSVYV (Free peptide added to T2 cells) [CD133-405], the “MFI (6 hour)” value rises from 34.7 MFI to 44.5 MFI.

Going from B3 to B4, the “MFI (6 hour)” value rises from 1.01 MFI to 1.3 MFI.

For B5, the “MFI (6 hour)” value was 13.3 MFI.
